From patent publication US6586197B1, “Methods and materials for identifying novel pesticide agents” (priority 1999, dated 2003)

T1: native 120 kDa APN from M sexta BBMV (Manduca sexta, UniProt Q11001)
T1 construct: native 120 kDa APN from M sexta BBMV; from tissue; host or cells: brush border membrane vesicles from midguts of 5th instar M. sexta larvae, CHAPS-solubilised
T1 sequence (Q11001 36-968): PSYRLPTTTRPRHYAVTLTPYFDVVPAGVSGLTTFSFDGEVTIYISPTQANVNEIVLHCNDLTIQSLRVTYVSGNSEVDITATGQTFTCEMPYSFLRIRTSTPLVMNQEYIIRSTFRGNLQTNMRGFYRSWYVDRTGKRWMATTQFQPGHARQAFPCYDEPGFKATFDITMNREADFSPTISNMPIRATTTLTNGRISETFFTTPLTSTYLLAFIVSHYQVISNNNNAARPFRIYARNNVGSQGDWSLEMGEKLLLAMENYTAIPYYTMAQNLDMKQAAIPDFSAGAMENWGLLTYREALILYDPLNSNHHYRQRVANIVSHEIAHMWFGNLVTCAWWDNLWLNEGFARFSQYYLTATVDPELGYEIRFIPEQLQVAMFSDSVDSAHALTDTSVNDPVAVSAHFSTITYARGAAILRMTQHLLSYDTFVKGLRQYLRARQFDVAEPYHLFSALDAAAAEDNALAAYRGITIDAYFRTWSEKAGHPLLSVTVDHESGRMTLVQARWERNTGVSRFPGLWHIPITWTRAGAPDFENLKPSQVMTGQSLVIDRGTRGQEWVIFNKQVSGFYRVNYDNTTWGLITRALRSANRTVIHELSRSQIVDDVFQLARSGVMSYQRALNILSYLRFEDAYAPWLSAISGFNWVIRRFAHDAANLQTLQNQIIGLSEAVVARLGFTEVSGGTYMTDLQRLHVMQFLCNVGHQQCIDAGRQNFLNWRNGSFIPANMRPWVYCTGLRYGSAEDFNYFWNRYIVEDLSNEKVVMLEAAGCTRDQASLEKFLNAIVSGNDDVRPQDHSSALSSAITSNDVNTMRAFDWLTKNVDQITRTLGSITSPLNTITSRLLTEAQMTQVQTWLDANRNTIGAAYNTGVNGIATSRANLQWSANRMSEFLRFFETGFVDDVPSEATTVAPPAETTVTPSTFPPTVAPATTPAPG

B1: Cry3a: trypsin-activated, purified B. thuringiensis Cry3a toxin (protein)
chain: NPHSQGRIRELFSQAESHFRNSMPSFAISGYEVLFLTTYAQAANTHLFLLKDAQIYGEEWGYEKEDIAEFYKRQLKLTQEYTDHCVKWYNVGLDKLRGSSYESWVNFNRYRREMTLTVLDLIALFPLYDVRLYPKEVKTELTRDVLTDPIVGVNNLRGYGTTFSNIENYIRKPHLFDYLHRIQFHTRFQPGYYGNDSFNYWSGNYVSTRPSIGSNDIITSPFYGNKSSEPVQNLEFNGEKVYRAVANTNLAVWPSAVYSGVTKVEFSQYNDQTDEASTQTYDSKRNVGAVSWDSIDQLPPETTDEPLEKGYSHQLNYVMCFLMQGSRGTIPVLTWTHKSVDFFNMIDSKKITQLPLVKAYKLQSGASVVAGPRFTGGDIIQCTENGSAATIYVTPDVSYSQKYRARIHYASTSQITFTLSLDGAPFNQYYFDKTINKGDTLTYNSFNLASFSTPFELSGNNLQIGVTGLSAGDKVYIDKIEFIPVN
B2: Cry1Ba (65 kDa): B. thuringiensis Cry1Ba toxin, 65 kDa form, provided by Dr. Masson (protein)
chain: IEDSLCIAEGNNIDPFVSASTVQTGINIAGRILGVLGVPFAGQLASFYSFLVGELWPRGRDQWEIFLEHVEQLINQQITENARNTALARLQGLGDSFRAYQQSLEDWLENRDDARTRSVLYTQYIALELDFLNAMPLFAIRNQEVPLLMVYAQAANLHLLLLRDASLFGSEFGLTSQEIQRYYERQVERTRDYSDYCVEWYNTGLNSLRGTNAASWVRYNQFRRDLTLGVLDLVALFPSYDTRTYPINTSAQLTREVYTDAIGATGVNMASMNWYNNNAPSFSAIEAAAIRSPHLLDFLEQLTIFSASSRWSNTRHMTYWRGHTIQSRPIGGGLNTSTHGATNTSINPVTLRFASRDVYRTESYAGVLLWGIYLEPIHGVPTVRFNFTNPQNISDRGTANYSQPYESPGLQLKDSETELPPETTERPNYESYSHRLSHIGIILQSRVNVPVYSWTHRSADRTNTIGPNRITQIPMVKASELPQGTTVVRGPGFTGGDILRRTNTGGFGPIRVTVNGPLTQRYRIGFRYASTVDFDFFVSRGGTTVNNFRFLRTMNSGDELKYGNFVRRAFTTPFTFTQIQDIIRTSIQGLSGNGEVYIDKIEIIPVTATFEAEYDLER

Legend:
[1] = test system: expressed 120 kDa APN from Sf21 cells; experiment: Toxin affinity chromatography and anti-APN immunoblot, Sf21 cells; type: binding, Manduca sexta; conditions: CHAPS-solubilized Sf21 cells, anti-APN immunoblot (FIG. 13)
Protocol: Affinity purification method of M. sexta 120 kDa APN from Sf21 cells or M. sexta midgut BBMV was described in Luo et al (1996). Briefly, Cry1Ac, Cry1Ba and Cry3a toxins (200 μg) were coupled to 400 μl of cyanogen bromide-activated Sepharose 4B in 20 mM Na2CO3, pH 9.6. M sexta BBMV (1 ml, 3.4 mg/ml proteins) or Sf21 cells (10^7 cells) were solubilized with 2% 3-[(3-cholamidopropyl) dimethylammoniol]-1-propane-sulphonate (CHAPS) in buffer A (50 mM Na2CO3, pH 9.6, 200 mM NaCl, 5 mM EGTA, 0.1% CHAPS). Insoluble material was removed by centrifugation at 27,000×g for 30 min at 4° C. CHAPS-solubilized BBMV (1 ml) or Sf21 cells (2 ml) were then added to the toxin-coupled Sepharose beads equilibrated with Buffer A. The mixture was incubated at 4° C. overnight. After washing with 100 ml of Buffer A, the binding protein-toxin complex was dissociated from the beads by heating in SDS-PAGE sample buffer at 100° C. for 5 min. The samples were separated by 8% SDS-PAGE, and then electrophoretically transferred to nitrocellulose membrane (Millipore Corp., Bedford, Mass.) in transfer buffer (Towbin et al., 1979) at 4° C. overnight. The membrane was blocked with 5% non-fat dry milk in PBST at room temperature for 1 h, and then probed with anti-APN antibody (0.5 μg/ml) in PBST containing 0.1% non-fat dry milk for 2 h. […]

[2] = test system: Sf21 cells transfected with pHSP120; experiment: Toxicity assay (Trypan blue cell mortality), Sf21 cells expressing M. sexta 120 kDa APN; conditions: 2 h
Protocol: (§1) The pHSP120 plasmid DNA was isolated and purified using a Plasmid Maxi Kit (Qiagen, Valencia, Calif.). Sf21 (IPLB-Sf21) cells (Vaughn et al., 1977) were plated at 1.8×10^6 cells per plate (60 mm diameter) prior to transfection with pHSP120 DNA. Plasmid DNA (10 μg) was mixed with 5 μl of Lipofectin reagent (Gibco BRL, Gaithersburg, Md.) and combined with 1 ml of TC-100 medium (Gibco BRL, Gaithersburg, Md.). The mixture was incubated at room temperature for 15 min. Following 3 washes with TC-100 medium, the DNA/Lipofectin mixture was added to the cells, and then the cells were incubated at room temperature for 4 h on a rocker. After removal of DNA/Lipofectin mixture, TC-100 with 10% fetal bovine serum (4 ml) was added to the plates and the cells were incubated at 27° C. overnight. Expression of 120 kDa APN in Sf21 cells was induced by heat-shocking cells at 42° C. for 30 min the following day. After incubation at 27° C. for 24 h, the cells were collected and analyzed using immunofluorescence localization and Western blotting.
Sf21 cells (1.8×10^6) were grown and heat-shocked as described above. […] The freshly prepared toxin solution (1 ml) was added to each Sf21 cell plate and incubated at room temperature for 2 h. Cell mortality was determined by trypan blue staining as described by Thomas and Ellar (1983).
(§2) Thetoxicity of three Cry1toxins to Sf21 cells expressing M sexta 120 APN was determined. A single concentration of Cry1toxins (40 μg/ml) was used and the cell mortality was measured by Trypan blue staining (Thomas and Ellar 1983).

[3] = test system: Sf21 cells transfected with pHSP-HR5; experiment: Toxicity assay (Trypan blue cell mortality), control-vector Sf21 cells; conditions: 40 μg/ml toxin in insect PBS, 2 h, Trypan blue (0.1%) staining; means of three assays (±standard error); control vector
Protocol: as §1, with “Expression of 120 kDa APN in Sf21 cells was induced by heat-shocking cells at 42° C. for 30 min the following day.” left out
Sf21 cells (1.8×10^6) were grown and heat-shocked as described above. […] Cell mortality was determined by trypan blue staining as described by Thomas and Ellar (1983).
as §2

[4] = test system: expressed 120 kDa APN on Sf21 cells transfected with pHSP120; experiment: Immunofluorescence binding of rhodamine-labeled toxins to Sf21 cells (confocal microscopy), pHSP120; parameters: species or system Manduca sexta; conditions: toxin 1 μg/ml, fixed Sf21 cells transfected with pHSP120
Protocol: Growth of B. thuringiensis strains, trypsin activation, and fast-performance liquid chromatography (Pharmacia) purification of Cry1Ac, […] and Cry3a toxins were done as previously described (Garczynski et al 1991; Lu and Adang 1996). […] The purified Cry1Ac and Cry1Ba (200 μg) were labeled with 5-(and-6)-carboxytetramethylrhodamine, succinimidyl ester [5(6)-TAMRA SE] (Molecular Probe, Eugene, Oreg.) according to the manufacturer's instructions. Briefly, 5(6)-TAMRA (5 mg) were dissolved in 0.5 ml of Dimethylformamide (DMF) immediately before starting the labeling. The dye solution (100 μl) was slowly added into 500 μl of toxin sample (200 μg toxins) and incubated for 1 h at room temperature. The reaction was stopped by adding 0.1 ml of 1.5 M hydroxylamine, pH 8.5, and then the mixture was incubated. for 1h at room temperature. […]
Sf21 cells were plated onto a microscope cover glass (18×18 mm) in a tissue culture dish (60×15 mm diameter), and then transfected and heat-shocked as described above. […] Immunostained cells were observed using fluorescence microscopy or fluorescence confocal microscopy (Center for Advanced Ultrastructural Research, University of Georgia).
Since the expressed 120 kDa APN located on Sf21 cell surfaces, we examined the binding of Cry1toxins to Sf21 cells using double immunofluorescence staining. […] And then cells were viewed by fluorescence confocal microscopy.

[5] = molecular target: T1, native 120 kDa APN from M sexta BBMV; experiment: Toxin affinity chromatography and anti-APN immunoblot, midgut BBMV; type: binding; conditions: CHAPS-solubilized M sexta BBMV, anti-APN immunoblot (FIG. 13)
Protocol: M. sexta larvae were reared on artificial diet (Southland Products, Inc.; Lake Village, Ark.) at 26° C., 70% relative humidity with a photoperiod of 12:12 (Light:Dark) h. Midguts were dissected from second day 5th instar larvae, and either immediately used to prepare brush border membrane vesicles (BBMV) or stored at −80° C. BBMV were prepared according to that described in Wolfersberger et al. (1987) as modified in Ferre et al. (1991) and stored in 0.3 M mannitol, 5 mM EGTA, 17 mM Tris-Cl, pH 7.5, at −80° C. until needed. The 115 kDa M. sexta APN was purified as described previously (Lu and Adang, 1996).
Affinity purification method of M. sexta 120 kDa APN from Sf21 cells or M. sexta midgut BBMV was described in Luo et al (1996). Briefly, Cry1Ac, Cry1Ba and Cry3a toxins (200 μg) were coupled to 400 μl of cyanogen bromide-activated Sepharose 4B in 20 mM Na2CO3, pH 9.6. M sexta BBMV (1 ml, 3.4 mg/ml proteins) or Sf21 cells (10^7 cells) were solubilized with 2% 3-[(3-cholamidopropyl) dimethylammoniol]-1-propane-sulphonate (CHAPS) in buffer A (50 mM Na2CO3, pH 9.6, 200 mM NaCl, 5 mM EGTA, 0.1% CHAPS). Insoluble material was removed by centrifugation at 27,000×g for 30 min at 4° C. CHAPS-solubilized BBMV (1 ml) or Sf21 cells (2 ml) were then added to the toxin-coupled Sepharose beads equilibrated with Buffer A. The mixture was incubated at 4° C. overnight. […]

[6] = 40 μg/ml toxin, the sentence does not say which plasmid

Molecule | Binding of APN to toxin affinity column [1] | Mortality (%) (±SE), Cells transfected with pHSP 120 ([2]; 40 μg/ml toxin in insect PBS, Trypan blue (0.1%) staining, means of three assays (±standard error)) | Mortality of Sf21 cells (cells killed) [2, 6] | Toxicity to Sf21 cells in words [2, 6] | Mortality (%) (±SE), Cells transfected with pHSP-HR5 [3] | Binding of rhodamine-labeled toxin (immunofluorescence) [4] | Binding of APN to toxin affinity column [5]
B1 | did not bind |  |  |  |  |  | 
B2 | bound weakly | 17.6 (±0.9) % | about 17% | low toxicity | 16.5 (±0.1) % | only bound weakly | bound weakly
